In US20170204150A1 (Stanford University, published 2017):
Each block holds one binder with its values, some of them ahead of it.

Legend:
[1] = target: T1, VEGFR2-Fc (UniProt P35968 20-764, limits assumed); assay: yeast surface display, titration with soluble VEGFR2-Fc, % maximum VEGFR2-Fc bound
T1 construct: Neither the source nor the limits of the VEGFR2-Fc construct are stated; also called VEGFR2 receptor; not shown: Fc part

[2] = target: T2, prostate specific membrane antigen (PSMA) (UniProt Q04609 44-750, limits assumed); assay: yeast surface display, titration with soluble PSMA, PSMA bound in arbitrary fluorescence
T2 construct: also called folate hydrolase I
T2 sequence (Q04609 44-750 limits assumed): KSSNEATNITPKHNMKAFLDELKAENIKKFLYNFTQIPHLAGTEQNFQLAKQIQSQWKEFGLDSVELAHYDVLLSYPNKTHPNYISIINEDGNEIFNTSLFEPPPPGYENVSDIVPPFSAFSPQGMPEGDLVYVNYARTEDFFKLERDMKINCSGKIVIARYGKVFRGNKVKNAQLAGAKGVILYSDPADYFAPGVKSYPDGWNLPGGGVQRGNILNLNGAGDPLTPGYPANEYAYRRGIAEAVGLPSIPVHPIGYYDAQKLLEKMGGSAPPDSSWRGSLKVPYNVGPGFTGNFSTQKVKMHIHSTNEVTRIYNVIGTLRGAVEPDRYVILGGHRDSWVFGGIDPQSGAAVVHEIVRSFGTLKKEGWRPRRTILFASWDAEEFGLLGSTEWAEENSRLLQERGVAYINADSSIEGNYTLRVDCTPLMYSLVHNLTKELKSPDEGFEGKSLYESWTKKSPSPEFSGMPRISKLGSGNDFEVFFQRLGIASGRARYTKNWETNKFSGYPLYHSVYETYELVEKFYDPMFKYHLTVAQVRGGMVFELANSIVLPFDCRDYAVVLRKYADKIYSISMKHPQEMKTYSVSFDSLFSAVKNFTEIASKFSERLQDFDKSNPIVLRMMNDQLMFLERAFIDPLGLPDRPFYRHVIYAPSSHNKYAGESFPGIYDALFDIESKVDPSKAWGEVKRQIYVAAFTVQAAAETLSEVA

[3] = target: T1, VEGFR2-Fc; assay: soluble protein binding to VEGFR2-Fc, Octet platform (lower table; taken as the soluble-form table from legend paragraph 18 and paragraph 153)
Source text: The Octet® platform was used to measure the soluble affinity of the variants to VEGFR2-Fc and their respective target proteins. As with the results on the yeast surface, the variants' affinities to VEGFR2-Fc were similar to each other and to scVEGFmut.

[4] = target: T2, prostate specific membrane antigen …; assay: yeast surface display: VEGFR2/PSMA displayed on the yeast cell surface, titrated with soluble PSMA (upper table; taken as the yeast-display table from legend paragraph 18)
[5] = target: T1, VEGFR2-Fc; assay: yeast surface display: VEGFR2/PSMA displayed on the yeast cell surface, titrated with soluble VEGFR2-Fc (upper table; taken as the yeast-display table from legend paragraph 18)
[6] = target: T1, VEGFR2-Fc; assay: yeast surface display: scVEGFmut displayed on the yeast cell surface, titrated with soluble VEGFR2-Fc (upper table; taken as the yeast-display table from legend paragraph 18)

T1 sequence (P35968 20-764 limits assumed): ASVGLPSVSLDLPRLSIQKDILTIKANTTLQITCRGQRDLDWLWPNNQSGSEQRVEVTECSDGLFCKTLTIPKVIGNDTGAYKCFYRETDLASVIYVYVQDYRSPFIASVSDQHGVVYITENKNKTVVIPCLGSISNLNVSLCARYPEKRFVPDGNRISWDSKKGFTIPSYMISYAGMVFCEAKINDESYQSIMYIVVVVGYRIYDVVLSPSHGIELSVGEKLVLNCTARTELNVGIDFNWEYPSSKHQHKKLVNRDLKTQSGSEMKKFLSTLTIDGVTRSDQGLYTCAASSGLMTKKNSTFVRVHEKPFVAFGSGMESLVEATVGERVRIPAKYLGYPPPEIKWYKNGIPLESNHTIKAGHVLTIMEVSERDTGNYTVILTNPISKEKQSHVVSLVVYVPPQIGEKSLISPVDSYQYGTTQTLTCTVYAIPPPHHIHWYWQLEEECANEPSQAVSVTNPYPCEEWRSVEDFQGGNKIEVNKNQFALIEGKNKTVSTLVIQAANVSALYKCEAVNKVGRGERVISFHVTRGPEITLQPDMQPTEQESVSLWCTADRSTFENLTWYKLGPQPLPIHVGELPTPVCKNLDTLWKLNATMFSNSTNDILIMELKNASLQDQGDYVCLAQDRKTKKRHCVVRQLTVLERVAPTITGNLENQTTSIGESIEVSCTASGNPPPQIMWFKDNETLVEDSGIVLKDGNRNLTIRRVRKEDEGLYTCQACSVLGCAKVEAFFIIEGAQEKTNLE

EC50 (read off the curve) [1]: ~4 nM
EC50 (read off the curve) [2]: ~40 nM
Kd [3]: 13 nM
Kd [4]: 58 nM
Kd [5]: 4.6 nM
B1: VEGFR2/PSMA protein (designed binder)
chain: EVVKAMDVYQRSYCHPIETLVDIFQEYPDEIEYIFKPSCVPLMRCGGCCNDAGLECVPTEESNITMQIMRIKPHQGQHIGEMSFLQHNKCECRPKKDGGGGSGGGGSGGGGSGGGGSEVVKFMDVYQRSYCHPIETLVDIFQEYPSIASWNPWMAFKPSCVPLMRCGGCCNDEGLECVPTEESNITMQIMRNRLFRYLPVRHIGEMSFLQHNKCECRPKKD

EC50 (read off the curve) [1]: ~6 nM
Kd [3]: 13 nM
Kd [6]: 6 nM
B2: scVEGFmut (ligand)
chain: APMAEGGGQNHHEVVKAMDVYQRSYCHPIETLVDIFQEYPDEIEYIFKPSCVPLMRCGGCCNDAGLECVPTEESNITMQIMRIKPHQGQHIGEMSFLQHNKCECRPKKDRARQEKCDKPRRGGGGSGGGGSGGGGSGGGGSAPMAEGGGQNHHEVVKFMDVYQRSYCHPIETLVDIFQEYPDEIEYAFKPSCVPLMRCGGCCNDEGLECVPTEESNITMQIMRAKPHQGQHIGEMSFLQHNKCECRPKKDRARQEKCDKPRR
notes: also called single-chain antagonist mutant VEGF; scaffold protein
